Legend:
[1] = biological target: T1, GST-cdc25c (200 to 250 amino acids) (UniProt P30307)
T1 sequence: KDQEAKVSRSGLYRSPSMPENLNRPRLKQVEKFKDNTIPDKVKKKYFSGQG

[2] = biological target: GST-weel (Accession number U10564) (UniProt P30291)
[3] = biological target: T2, human Chk1 (Accession number AF016582) protein prepared as a fusion protein with glutathione S-transferase (GST) (UniProt O14757)
T2 sequence: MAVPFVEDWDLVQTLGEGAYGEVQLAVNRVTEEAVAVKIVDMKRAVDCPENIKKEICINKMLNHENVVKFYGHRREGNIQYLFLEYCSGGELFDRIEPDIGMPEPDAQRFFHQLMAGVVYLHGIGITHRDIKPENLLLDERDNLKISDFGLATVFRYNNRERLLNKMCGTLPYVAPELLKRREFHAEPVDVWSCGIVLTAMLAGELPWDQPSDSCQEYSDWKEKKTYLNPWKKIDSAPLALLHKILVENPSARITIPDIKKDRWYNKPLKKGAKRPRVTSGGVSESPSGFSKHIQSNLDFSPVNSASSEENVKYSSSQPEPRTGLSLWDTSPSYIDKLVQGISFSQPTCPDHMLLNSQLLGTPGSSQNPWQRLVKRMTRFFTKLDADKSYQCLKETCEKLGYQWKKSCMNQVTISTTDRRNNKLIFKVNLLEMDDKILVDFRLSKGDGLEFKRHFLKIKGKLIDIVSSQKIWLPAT

[4] = biological target: T3, GST-cdc25c (full-length) (Accession number L26584) (UniProt P30307)
T3 sequence: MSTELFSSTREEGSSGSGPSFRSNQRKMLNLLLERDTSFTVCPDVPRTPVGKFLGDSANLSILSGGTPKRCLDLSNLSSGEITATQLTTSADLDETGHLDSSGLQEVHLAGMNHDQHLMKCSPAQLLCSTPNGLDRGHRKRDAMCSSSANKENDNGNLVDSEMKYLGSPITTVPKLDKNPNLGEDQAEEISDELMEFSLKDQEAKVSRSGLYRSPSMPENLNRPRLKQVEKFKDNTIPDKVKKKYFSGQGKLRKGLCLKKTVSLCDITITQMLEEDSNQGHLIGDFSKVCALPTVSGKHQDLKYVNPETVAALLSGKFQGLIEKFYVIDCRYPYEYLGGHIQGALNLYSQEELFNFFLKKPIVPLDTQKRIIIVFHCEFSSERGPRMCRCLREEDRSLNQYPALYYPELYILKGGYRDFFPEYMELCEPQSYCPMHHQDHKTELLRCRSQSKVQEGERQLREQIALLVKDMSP

[5] = system: histone H1 (J. Biochem. 100, 359, 1986)

Chain of GST-weel (Accession number U10564) (P30291 whole entry, looked up, the tested form may be a part): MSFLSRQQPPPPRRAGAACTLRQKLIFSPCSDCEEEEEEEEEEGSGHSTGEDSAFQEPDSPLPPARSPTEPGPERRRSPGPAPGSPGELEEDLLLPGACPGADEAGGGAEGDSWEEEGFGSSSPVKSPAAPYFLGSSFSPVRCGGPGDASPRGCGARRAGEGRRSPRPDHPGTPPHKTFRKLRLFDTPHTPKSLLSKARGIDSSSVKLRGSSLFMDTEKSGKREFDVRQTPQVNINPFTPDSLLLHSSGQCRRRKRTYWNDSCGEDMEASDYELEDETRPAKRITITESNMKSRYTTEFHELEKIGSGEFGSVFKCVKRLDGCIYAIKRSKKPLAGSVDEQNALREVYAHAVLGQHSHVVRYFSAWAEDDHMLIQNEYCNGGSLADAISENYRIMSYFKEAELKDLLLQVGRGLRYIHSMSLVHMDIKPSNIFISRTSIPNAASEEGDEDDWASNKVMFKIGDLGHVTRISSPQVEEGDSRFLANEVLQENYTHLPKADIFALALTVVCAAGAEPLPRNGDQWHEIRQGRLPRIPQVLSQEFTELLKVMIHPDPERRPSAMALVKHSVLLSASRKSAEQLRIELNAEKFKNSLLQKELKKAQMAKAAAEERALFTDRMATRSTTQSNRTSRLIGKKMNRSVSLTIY

“hCds1 KM mutant (249th lysine converted to methionine, myc/6xHis-tagged, expressed in Sf9 cells)” was tested, and the “in vitro kinase assay ([gamma-32P]ATP, SDS-PAGE, autoradiography)” value (“in vitro kinase assay” for short) [1] was “failed to phosphorylate any substrate”, the “in vitro kinase assay” value [2] was “failed to phosphorylate any substrate” and the “in vitro kinase assay” value [3] was “failed to phosphorylate any substrate”. For the same substance, the “in vitro kinase assay” value [4] was “failed to phosphorylate any substrate” and the “in vitro kinase assay” value [5] was “failed to phosphorylate any substrate”.

In the case of “recombinant "hCds1" (human Cds1, wild type, myc/6xHis-tagged, expressed in Sf9 cells)”, the “in vitro kinase assay” value [1] is reported as “efficiently phosphorylated”, the “in vitro kinase assay” value [2] is reported as “hardly phosphorylated” and the “in vitro kinase assay” value [3] is reported as “hardly phosphorylated”. The “in vitro kinase assay” value [4] was “efficiently phosphorylated” and the “in vitro kinase assay” value [5] was “efficiently phosphorylated”.
